Results as given in the DeepSol protein solubility set.

Experiment: soluble on expression in E. coli; label from the status in PepcDB or PDB records

Sequence | soluble on expression in E. coli
MMDAMTDPITFAATAAGRDAAHPLRDISFGEIGIATERKPDGTIYVRSTTTLTDYPVRITDRLHHFAETAPDRVFMAERNGEGGWRRISYAEMLRAAQTIASALIARGLSAERPVMILSGNSIDHAMVMFGALYAGVAMCPVSPPYSLVSKDYGKLRHIVGLLTPGLIFADDITAFAPAILATVPEDVELAATRGEVKGRKVTSLAELLATPEHPELAAKHEAIGHDTIAKFLLTSGSTGNPKAVINTQRMICANQVMIREAMAFLKDEPPVIVDWLPWNHTFGGNHNIGLTLFNGGSMYIDDGKPTPAGIASTIRNLREIAPTVYFNVPKGYESLLPVLREDQQLRKLFFSRLHAMFFSGASLAAHVWNGLDEVAVAETGARVPMLTGLGATETAPFFMSVTPQTSRSGHVGLPVPGNEAKLVPNNGKLEVRAKGPNITPGYWRAPELTDKAFDEEGFYKLNDALKPVDANDLSRGFDFDGRISEDFKLASGTWVSVGPLRAKFIAACASLVRDVVIAGLDRDYVTALAILDPDGCKLINATLPLEDLAGMAADHLIREAFRERFATLLTQATGSSNRVTRAVLLGEPLSIDKGEITDKGSVNQRAVLEYRASLIADLYADPPPAHVIALELEHHHHHH | soluble
MEHREALIALRTFLSTQILGQEKLIERLLIALLADGHMLVEGAPGLAKTKAIKELAEGIEAQFHRIQFTPDLLPADITGTEIYRPETGSFVFQQGPIFHNLVLADEINRAPAKVQSALLEAMAERQVSVGRSTYDLSPLFLVMATQNPIEQEGTYPLPEAQLDRFLMHVKIGFPDAAVERKILQQARGEALNGETKPERRVSQQAIFAARKEILGLYMADAVEEYLVQLVMATRTPAKFDPELAEWIAYGASPRGSISLDRCARAHAWLAGRDFVSPEDIQAVLFDVLRHRIILSFEAEAAGIDQDRVIQRILDVVAVALEHHHHHH | soluble
MAHHHHHHMGTLEAQTQGPGSMKQAYDNNNIFAKLIRNEIPSVRVYEDDDVIAFMDIMPQAPGHTLVIPKKGSRNLLDADTETLFPVIKAVQKIAKAVKKAFQADGITVMQFNEAASQQTVYHLHFHIIPRMEGIELTPHNNIITPTEILEENAKKIRAAL | soluble
MVHGKLKEAAEVTGSVSLEALEEVQVGENIEVGVGIDELVNAEAFAYDFTLNYDENAFEYVEAISDDGVFVNAKKIEDGKVRVLVSSLTGEPLPAKEVLAKVVLRAEAKTEGSNLSVTNSSVGDGEGLVHEIAGTEKTVNIIEGTSPEIVVNPVRDFKASEINKKNVTVTWTEPETTEGLEGYILYKDGKKVAEIGKDETSYTFKKLNRHTIYNFKIAAKYSNGEVSSKESLTLRTAR | soluble
MAAGKRDYYEVLGVSRSATAQDIKRAFRKLAMQYHPDRHKGEGETVQKQNEEKFKEVNEAYEVLSDTEKRGMYDRFGHEGLNASGFHETGFNPFDIFNSVFGEGFSFDMDGGSPFDFIFSRGKKSRQNRVVLPYDLEIAVGVDISFFEMTNGCTRTIEYTKRVTCSACDGFGAEGGETGMVSCNSCEGNGFILKNQRSIFGTVQSQMLCQSCGGQGKQAKHKCKTCKGSKYKKVPTTKEIQIPAGIYHGDALVDDHGGNEFGGHVGKLVVHVGVLPSKIFKRVDHNVVANVLVDPMIAITGGKIELPTLEGIKEFNLRAGTKSGEQIVIPGGGIKFTKNFRKKAGDLIIIISYARPSEYSAPELRKLKEFIKPNQEVKQYLEHHHHHH | soluble
MGILNKILTAFRGGATEVGQSIVDANSTRIFEQEIRDAEKHLTNAKRELTDVMAKEMQASREVDRLKRSIAEHEGYVTQALDKGNEALAIEVAEKIAQLEQELAEQQTANDSFSAHALRLKDLVKKTERQLSDYQRQLSMVKTTESVQKATATITDSFASSNSKLLNAKDSLERIKARQQQFDDRLKAAETLAEEGSDKSLQAKLAEAGIGEQKSNANAVLERIKARKSLEHHHHHH | not soluble
MTREIIPILPEAPVETARSGNALPLLREIAEHLHHLLETGEASTIDLSALPLTPGDLEWLRAELGGGEVSVTLHADGASTLDETAFPGVWWIIHRNAQGAVTTQFIEVAFVPELVKSPRADVAAARAALVLRMADL | soluble
MHSRSVKFPSSKGHQIAGTIDFPDGTPRAFAMFAHCFTGSRFTPGAARVSKELAERGIACLRFDFPGLGQSEGIFSETSFSENVADIKAAADWLGQHYSAPQLLIGHSLGGAASLKAATTLKCLRGVATIGAPFDPAHAVLHFADRIGEVDENGAVTLTLGGRDITISREFLEDLADTNPEAYLPRLRKPLLILHSPIDQTVGVDNAQLIFRTTRYPKSLVALDKVDHLLTKQGSAQQAARIINTWFEQHIVAENEDPNADTLPEGVAVAQSIPAGKFADIVHTGTHSFTTDREKALGGKNLGVSPTSLLISALAAATSQEIRLAAKESRIHSLEDVNVTISKTVGDGERVHLRRNISLVGDLTDDERHELLLAARNSDIEKMLQGNVTINDQDV | not soluble
LRSNIDLFYTPGEILYGKRETQQMPEVGQRLRVGGMVMPGSVQRDPNSLKVTFTIYDAEGSVDVSYEGILPDLFREGQGVVVQGELEKGNHILAKEVLAKHDENYTPPEVEKAMEANHRRPASVYKDPASHHHHHH | soluble
MSLEFAMWAYPWDLLDEGPSEVERRLRDIGIDELNLATNYHTVQAFTPHSPERRTLFARASSYFEPGPEYGDLEPVPYEGMNGDWVADAATGLSDLTLNSWTVGCHNSRLGMANPEYTLESAHGDDLVFGLCPSQPAVQTYLSALVSDLSSRDEFARIELETFDYFYGTGFGWHHQKIHARLGVLGEFLLGLCFCPHCRKNAKAAGVDAERVRSTVADTIDDIVAGDVSHEHPPEEWLADHSTVAAYVDVRERTLASLYATLADAAGTTSLGYYVGAPEPGREWVVGADLQALSNHVDYYCLPAYESSSDAVIGAYNAVETVIDDVPLHIGLLPGHPAIDDEATVVDIVETLDSKGVPRLSFYNYGLLPEQSLEWVETAIETVSEGHHHHHH | soluble
MAHHHHHHMKPKMRRESAQPCLTCMPAILNKSVCPIHKIYSDNTLLLFMVIDCYNKMCSKKISTRNANDYKKLWNDNKLLICYSHGVLFHMHTRTSKTCFPQNYFSSNNDNCECGVHQVRFKTLKAQVHIIIPAILTGTTIV | not soluble
PREEVARIHASSGTTGKPTVVGYTKNDLKVFAEVVARSLAAAGARPGMMLHNAYGYGLFTGGLGLHGGAEALGMTVVPVSGGMTERQVMLIQDFRPEVISCTPSYAQTLAEEFRKRGVSPEELSLEYAVLGAEPWTEAIRKQVDEGLGVKSTNIYGLSEIIGPGVSNECVEERQGSHI | not soluble
MAHHHHHHMPELSYMFSSVSEPRALGAADDGQVITSHSNSSNNNHNNFYPLYSASGSTKVSNYGGHFENNGNNIISMNNKSDVNANTCGDSGEKGNEGEKWIWVLDPLTRKLRVPLSQLVHTQATATTGTVPSLCISFLEGRCRHQWCRQAHVLPSAIPQLRHEALHAPTCCRLHDDPHDTSVLTSRFKYIRVV | not soluble
AHHHHHHGSKRVNAFNDLKRIGDDKVTAIGMGTWGIGGRETPDYSRDKESIEAIRYGLELGMNLIDTAEFYGAGHAEEIVGEAIKEFEREDIFIVSKVWPTHFGYEEAKKAARASAKRLGTYIDLYLLHWPVDDFKKIEETLHALEDLVDEGVIRYIGVSNFNLELLQRSQEVMRKYEIVANQVKYSVKDRWPETTGLLDYMKREGIALMAYTPLEKGTLARNECLAKIGEKYGKTAAQVALNYLIWEENVVAIPKASNKEHLKENFGAMGWRLSEEDREMARRCV | soluble
MEKAIHNLGKDARLHIIHILLQNRSKKELADELGITPAAITKYLKGITHPSDEIIEKCIEIASEDEEYHEIIKVIVSDITEALMELLREIGIEKMIDNEDIQKLKKLLDKAFDKMLSTSPSFV | not soluble
MASSSNFMAPPPKMNKTSSMNSLRKTLGLKKPNNGELSMVPSRPIVSPTLSSPLQGSGAAPLEKDYHSLEYRLTHGHWRIFNSKSVFGNKDASVLVFDKKSNVKAPPKLGKSKTYSMFDLIKYETQQLMGLIHPRILHMEHSLEETKDYISFATEQIFGNLENVVTDESLDRLEIKLGVLQIIDGMSYLHNSAKMLHGNLTPDAIYVTATKTWKIGGFSFAVNAKEPNCYPCYPWTKKLPPCLQPDLDFLAPENLAPGQTTVTSAADVFSLGVLICWIYAGGKRLIDAKSNLETYHIVVGQLDAALQCISNELGPNLKDSMAKVLSLDVEVRPTVQLLSLIKHFDDPCLSALRQLDDIAQVFDPSQKSHFLSQTLNVAIPHISESVWFNRVLPRFNEQLLELPEMYYPITKPLFHILEHCESHNIHKMKPWIRKLMEAAPHNKLLRAFILENMSALFRRLSDEFVEDKCLDVIILSLKSEDTSLQSSAVRGLPHVAEYLPVGFITKKLIPAIMGLPPFLHENVPRQLDLLAALAALSDRCDVSSIVHLFGCISLCNSSHPVIVHAKSRIVQRLVMRDPNRLKDSQLLSIHLLNPLVNGLACKDLSTFSCAHFDDVLSSVRILLDVLEQRRYEMEDRQEHKQSNHHLGLNRLGNRRVSMSSTNLPRVMISAARPSFSSDSRKMSFLSADGRLEDRGSRRESRDSRGSLESDMSIRIGNGSDISDDSCFSSHSAKGRRQSWLDGYGHSVSLEQNTNGFLETTSRNLGDRNSMNFKQRNARASERRARTRSPNAELDPQREQPPARPNSFTNLGHNIVLTYRNLLYKDHT | not soluble
MNRKPRTRSTIVPGRKMITEIVALREAGLDDTRPSYLEEPTVIVDESMMNDSANLEEREWRKQGLSEKQMFAILEKRKQTQLNNARKRLEKEMYGAKTFKELIACREYSECESDSENTVNQNVRSASVFAIPALPKHISEKSMMGSPIANSRGSGKAGLSCSTPKSSSDTSMRSLRSLDISHVVNTDRLDAERVTVHTKSVVIPTILEERESTLQKTLTIEKNHSSQLQKTFTVAEDAPEELQKTVTIEKNQSSEMQRTFTVAKDASKEQSQLQRTVTIEKNQSSQLQGNFTVAKDAPEELQKTVTIEKNQSSEMQGTVTVAKDAEHSSLQKTFTKPTEKDESSLQRTFNVANRDENNDSTLQKTFIIEERDAYEQGTTSVGVKPPVLAQNTMEGGEKRRTSKVTSDERERRNASISNPLHNSMLEKEEIQSPGANFFKHPRKKIRPVVQTPPRIKATSRLSTESNKERTIEMESVAEERTMEADSIGSSYISPTFNASRVSPVPEVPEKVEPMHVSKAATPKSIRHTDNSIRNIGPTNNVECARAALLSTPTRMDIVDSVNRVTPARRYEQPTFASLVKRMNMKDANRLLEETSRKNTPAKTTATTSSAAVRMVLEDDEEDQATEVIEKRSENGGVIVDGEDEAADSSNRSLNIELNALTVNEEPAHDISAIDFPEDDTNEMRSSSDEEEMEARPDPRKKSSRRLGLLSDSIALGLASSSRRRPNDTFVDETWYPEPNSKGNRRPRTHRGMKLKEHQLMKPEDAPDGVRRSTRVRVKPVRSWLGEQPVYVNSPISGCKRLTGVTAVVIKDPRLCYYRTADVRTATERELKDKANKRALAQEKKQQRQNARSGRRHDSDDDEEDDM | not soluble
MGSDKIHHHHHHMRLYTRTGDKGKTSVIGGRLAKDDTRVVAYGTTDELNSFVGLAITQLDENTFADIRGELFKIQHELFDCGGDLAMLKVKEDRPYKAKQEIVDFLEQRIDAYIKEAPELERFILPGGSEAAASLHVCRTIARRAERYVVRLQQEGEINPIVLKYLNRLSDYFFAVARVVNSRLQVPDVEYERSAIVFREGKRKEDKK | not soluble
MAHHHHHHMKQRTNVALKRWYASERTKKANPLILISNSHNIHFNLSLENFLLNNYSDLLKHLNGNSIERYDDPVLFLWRNNRSIIIGKNQNIWSECNLENIKEDNVLVARRFTGGGAVYHDLQNLCFTFLNNSLSTDDNFSIILKTLKRHFAIEAKRQGRNDITVNDRKCSGSAFKKMKNGFLHHGTIMVNLEKDVLSRYLTPDKIKYTKHGVSSVNARTINLKEINPKITCQDLCYALIKEFQAFYKNGVPNEGGEASCSATLKVEDYTGGEKIANPPEQVSSNRNANLSEGEKSVANLIDHSSPILKHFNIHYVDTNESITKNPEFLKYLNLLKDWDWCYGKSPKFQNRLCKQFPFGKFEVFFNVSDGMIKDGNVFSDCLDINLVEQLKFIFNNDVRYSKDSVASFLRGLQVENEGSLREVTDWILQEL | not soluble
